Assay results as given in the supplement of paper PMC10065799, “High-throughput profiling of sequence recognition by tyrosine kinases and SH2 domains using bacterial peptide display” (eLife, 2023).

Columns and labels:
[1] = system: c-Src; assay: phosphorylation enrichment, bacterial display (enrichment ratio); higher = better substrate or ligand; peptides without Tyr show the background
[2] = target: Fyn (UniProt P06241); assay: as above
[3] = target: EPHB2 (UniProt P29323); assay: as above
[4] = target: FGFR1 (UniProt P11362); assay: as above
[5] = target: EPHB1 (UniProt P54762); assay: as above
Sequence of EPHB1 (P54762 whole entry, looked up): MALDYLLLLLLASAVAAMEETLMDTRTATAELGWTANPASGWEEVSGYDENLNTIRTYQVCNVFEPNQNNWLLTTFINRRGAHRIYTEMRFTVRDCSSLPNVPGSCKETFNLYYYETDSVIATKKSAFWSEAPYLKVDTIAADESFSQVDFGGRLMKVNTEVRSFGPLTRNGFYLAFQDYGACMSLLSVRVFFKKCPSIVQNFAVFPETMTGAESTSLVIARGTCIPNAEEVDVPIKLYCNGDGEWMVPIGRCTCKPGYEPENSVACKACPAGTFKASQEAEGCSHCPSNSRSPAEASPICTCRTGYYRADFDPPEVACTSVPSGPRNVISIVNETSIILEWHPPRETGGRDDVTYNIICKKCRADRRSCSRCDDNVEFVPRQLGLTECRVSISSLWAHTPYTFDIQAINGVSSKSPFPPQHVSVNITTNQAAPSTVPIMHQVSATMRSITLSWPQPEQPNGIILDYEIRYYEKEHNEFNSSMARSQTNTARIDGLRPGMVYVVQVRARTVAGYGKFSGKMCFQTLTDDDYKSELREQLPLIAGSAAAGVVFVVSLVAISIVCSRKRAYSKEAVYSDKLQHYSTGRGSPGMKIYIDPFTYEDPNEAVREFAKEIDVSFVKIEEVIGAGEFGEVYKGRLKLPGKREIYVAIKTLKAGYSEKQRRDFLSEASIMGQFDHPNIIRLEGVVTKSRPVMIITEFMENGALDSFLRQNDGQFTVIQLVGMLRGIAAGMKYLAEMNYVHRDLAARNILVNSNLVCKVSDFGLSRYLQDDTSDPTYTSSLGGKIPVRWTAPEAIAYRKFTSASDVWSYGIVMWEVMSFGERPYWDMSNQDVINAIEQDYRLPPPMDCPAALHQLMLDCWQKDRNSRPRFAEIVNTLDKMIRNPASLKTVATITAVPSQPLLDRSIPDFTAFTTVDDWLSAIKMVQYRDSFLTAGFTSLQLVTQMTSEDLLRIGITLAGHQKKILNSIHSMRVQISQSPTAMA

[6] = system: c-Abl (mouse); assay: as above
[7] = system: Fer (mouse); assay: as above
[8] = target: FGFR3 (UniProt P22607); assay: as above
Sequence of FGFR3 (P22607 whole entry, looked up): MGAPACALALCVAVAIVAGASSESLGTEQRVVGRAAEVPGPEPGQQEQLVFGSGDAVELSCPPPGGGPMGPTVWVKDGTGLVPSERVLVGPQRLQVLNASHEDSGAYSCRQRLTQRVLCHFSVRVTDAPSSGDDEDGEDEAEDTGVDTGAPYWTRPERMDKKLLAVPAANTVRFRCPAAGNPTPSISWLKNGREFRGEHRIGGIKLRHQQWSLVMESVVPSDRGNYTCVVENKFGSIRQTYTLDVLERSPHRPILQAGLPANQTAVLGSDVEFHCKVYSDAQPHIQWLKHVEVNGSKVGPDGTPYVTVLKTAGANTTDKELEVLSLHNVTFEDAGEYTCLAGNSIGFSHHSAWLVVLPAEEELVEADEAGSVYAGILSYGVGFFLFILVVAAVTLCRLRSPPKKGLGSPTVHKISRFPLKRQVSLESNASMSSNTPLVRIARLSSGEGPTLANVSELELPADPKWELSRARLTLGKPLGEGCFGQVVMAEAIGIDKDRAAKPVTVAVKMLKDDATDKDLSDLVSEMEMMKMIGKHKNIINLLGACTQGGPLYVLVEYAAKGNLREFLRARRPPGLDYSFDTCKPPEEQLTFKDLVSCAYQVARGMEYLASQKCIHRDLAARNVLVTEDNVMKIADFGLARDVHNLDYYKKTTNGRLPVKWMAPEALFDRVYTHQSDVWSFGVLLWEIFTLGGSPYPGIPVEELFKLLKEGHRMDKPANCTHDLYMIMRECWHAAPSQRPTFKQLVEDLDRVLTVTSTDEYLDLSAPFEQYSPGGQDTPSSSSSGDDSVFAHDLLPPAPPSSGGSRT

[9] = target: MERTK (UniProt Q12866); assay: as above
[10] = system: AncSZ; assay: as above
[11] = target: Jak2 (UniProt O60674); assay: as above
[12] = target: Fes (UniProt P07332); assay: as above
Sequence of Fes (P07332 whole entry, looked up): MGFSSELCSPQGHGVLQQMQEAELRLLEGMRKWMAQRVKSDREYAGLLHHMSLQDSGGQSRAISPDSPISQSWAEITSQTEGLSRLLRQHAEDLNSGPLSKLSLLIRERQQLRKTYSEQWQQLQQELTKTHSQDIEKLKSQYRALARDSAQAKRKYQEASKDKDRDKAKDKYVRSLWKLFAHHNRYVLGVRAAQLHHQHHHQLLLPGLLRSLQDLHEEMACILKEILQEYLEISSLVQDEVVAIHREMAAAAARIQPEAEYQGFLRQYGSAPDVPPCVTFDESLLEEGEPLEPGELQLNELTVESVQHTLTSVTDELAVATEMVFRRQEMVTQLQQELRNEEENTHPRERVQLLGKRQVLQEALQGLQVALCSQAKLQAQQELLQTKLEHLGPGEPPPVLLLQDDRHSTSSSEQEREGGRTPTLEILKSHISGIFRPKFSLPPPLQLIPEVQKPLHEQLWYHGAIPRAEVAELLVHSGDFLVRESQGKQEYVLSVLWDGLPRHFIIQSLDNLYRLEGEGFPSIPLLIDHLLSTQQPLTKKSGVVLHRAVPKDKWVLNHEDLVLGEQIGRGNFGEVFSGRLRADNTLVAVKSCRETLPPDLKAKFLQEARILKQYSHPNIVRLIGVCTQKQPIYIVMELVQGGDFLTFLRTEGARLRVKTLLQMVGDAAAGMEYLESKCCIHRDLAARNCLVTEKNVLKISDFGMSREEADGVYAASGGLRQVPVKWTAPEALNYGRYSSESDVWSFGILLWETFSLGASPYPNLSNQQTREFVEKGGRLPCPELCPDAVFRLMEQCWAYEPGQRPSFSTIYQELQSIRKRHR

[13] = target: Hck (UniProt P08631); assay: as above
Sequence of Hck (P08631 whole entry, looked up): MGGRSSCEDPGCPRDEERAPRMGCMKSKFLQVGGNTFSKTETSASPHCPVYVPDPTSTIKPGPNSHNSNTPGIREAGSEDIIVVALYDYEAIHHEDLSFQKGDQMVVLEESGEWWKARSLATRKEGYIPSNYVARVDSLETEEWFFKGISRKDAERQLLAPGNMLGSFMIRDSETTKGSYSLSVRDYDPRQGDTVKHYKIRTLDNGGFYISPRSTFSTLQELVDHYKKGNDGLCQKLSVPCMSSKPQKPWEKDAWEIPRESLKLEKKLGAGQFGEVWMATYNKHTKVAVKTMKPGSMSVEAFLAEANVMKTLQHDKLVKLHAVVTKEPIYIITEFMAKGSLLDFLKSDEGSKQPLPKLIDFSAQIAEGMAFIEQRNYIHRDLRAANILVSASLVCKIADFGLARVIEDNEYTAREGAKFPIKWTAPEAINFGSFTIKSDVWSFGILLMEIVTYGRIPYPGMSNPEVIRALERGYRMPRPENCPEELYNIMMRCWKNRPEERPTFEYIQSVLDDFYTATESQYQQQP

[14] = target: Grb2 SH2 (UniProt P62993); assay: SH2 binding enrichment of the phosphorylated peptide, bacterial display (enrichment ratio); higher = better substrate or ligand; peptides without Tyr show the background
[15] = target: c-Src SH2; assay: as above
[16] = target: SHP2-C SH2; assay: as above
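For SH2 binding enrichment of the phosphorylated peptide, bacterial display in this document: peptide library displayed on the E. coli surface as eCPX fusions, selected cells deep-sequenced, score is each peptide's frequency after selection divided by its frequency in the input.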
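For phosphorylation enrichment, bacterial display in this document: 11-residue human phosphosite peptides and single-mutation variants displayed on the E. coli surface, counted by deep sequencing, each peptide's frequency after selection divided by its frequency in the unselected input library; frequency after pTyr selection over input frequency; kinase dosed for 20-30% of maximal phosphorylation in three min.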

Sequence of EPHB2 (P29323 whole entry, looked up): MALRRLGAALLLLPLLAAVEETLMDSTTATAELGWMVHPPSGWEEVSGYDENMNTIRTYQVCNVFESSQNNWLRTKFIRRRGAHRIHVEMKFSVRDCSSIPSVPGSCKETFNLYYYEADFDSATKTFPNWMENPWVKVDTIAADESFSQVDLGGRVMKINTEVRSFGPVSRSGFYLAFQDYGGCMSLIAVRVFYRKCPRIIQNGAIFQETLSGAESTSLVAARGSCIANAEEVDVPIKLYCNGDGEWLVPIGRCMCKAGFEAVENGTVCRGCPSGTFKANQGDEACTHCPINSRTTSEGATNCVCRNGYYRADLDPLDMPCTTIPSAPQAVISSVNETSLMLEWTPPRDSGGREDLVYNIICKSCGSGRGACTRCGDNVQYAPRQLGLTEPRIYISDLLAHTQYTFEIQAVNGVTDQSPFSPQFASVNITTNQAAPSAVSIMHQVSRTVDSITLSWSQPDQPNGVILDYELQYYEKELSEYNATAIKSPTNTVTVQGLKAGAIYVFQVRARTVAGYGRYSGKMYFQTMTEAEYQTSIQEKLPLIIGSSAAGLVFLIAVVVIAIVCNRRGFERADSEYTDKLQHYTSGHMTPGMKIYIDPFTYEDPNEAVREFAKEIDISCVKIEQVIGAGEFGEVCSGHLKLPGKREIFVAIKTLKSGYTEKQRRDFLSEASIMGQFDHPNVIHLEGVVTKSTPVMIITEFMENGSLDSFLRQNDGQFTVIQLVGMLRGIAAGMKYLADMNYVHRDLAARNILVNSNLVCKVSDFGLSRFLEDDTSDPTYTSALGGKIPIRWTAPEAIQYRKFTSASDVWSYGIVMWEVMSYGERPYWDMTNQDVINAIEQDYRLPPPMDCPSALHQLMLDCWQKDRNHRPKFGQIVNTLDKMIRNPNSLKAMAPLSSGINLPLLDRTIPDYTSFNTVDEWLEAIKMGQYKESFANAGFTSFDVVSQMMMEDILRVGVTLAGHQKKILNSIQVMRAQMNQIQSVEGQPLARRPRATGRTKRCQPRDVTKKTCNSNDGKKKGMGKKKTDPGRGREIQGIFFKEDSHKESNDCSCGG
Sequence of Fyn (P06241 whole entry, looked up): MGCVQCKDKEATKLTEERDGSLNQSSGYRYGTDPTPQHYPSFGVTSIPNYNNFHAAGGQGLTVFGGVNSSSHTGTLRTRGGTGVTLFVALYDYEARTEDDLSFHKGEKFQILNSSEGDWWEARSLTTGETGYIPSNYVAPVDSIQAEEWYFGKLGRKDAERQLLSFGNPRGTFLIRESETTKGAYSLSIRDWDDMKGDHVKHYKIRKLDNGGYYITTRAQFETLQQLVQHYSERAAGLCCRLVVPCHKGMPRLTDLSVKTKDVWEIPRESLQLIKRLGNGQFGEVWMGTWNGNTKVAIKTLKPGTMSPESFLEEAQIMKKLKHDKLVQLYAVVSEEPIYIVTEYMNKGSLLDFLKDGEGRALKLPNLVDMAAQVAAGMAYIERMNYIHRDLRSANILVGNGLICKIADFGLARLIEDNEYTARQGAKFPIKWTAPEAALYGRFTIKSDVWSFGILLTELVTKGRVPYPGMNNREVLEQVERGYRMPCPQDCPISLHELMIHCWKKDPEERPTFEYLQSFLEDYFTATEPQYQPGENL

Row | SH2 binding enrichment [14] | SH2 binding enrichment [15] | SH2 binding enrichment [16] | Sequence | phosphorylation enrichment [1] | phosphorylation enrichment [2] | phosphorylation enrichment [3] | phosphorylation enrichment [4] | phosphorylation enrichment [5] | phosphorylation enrichment [6] | phosphorylation enrichment [7] | phosphorylation enrichment [8] | phosphorylation enrichment [9] | phosphorylation enrichment [10] | phosphorylation enrichment [11] | phosphorylation enrichment [12] | phosphorylation enrichment [13]
1 | 0.975 | 0.795 | 0.761 | SETDDYAEIIV [PTK2_Y397_D402V] | 0.61 | 0.519 | 1.04 | 1.16 | 0.83 | 0.677 | 0.82 | 1.2 | 0.524 | 1.4 | 1.09 | 1.17 | 0.655
2 | 0.817 | 1.88 | 0.883 | LTEHGYSFTTT [ACTB_Y198_R196H] | 1.09 | 0.968 | 0.533 | 0.961 | 0.862 | 1.58 | 0.815 | 1.09 | 0.938 | 2.11 | 1.61 | 1.79 | 0.342
3 | 0.841 | 0.506 | 0.558 | ENRKFYMDLKE [PURA_Y156_YF] | 0.375 | 0.408 | 0.691 | 0.503 | 0.492 | 0.557 | 0.487 | 0.738 | 0.432 | 0.917 | 0.963 | 0.989 | 0.469
4 | 1.48 | 1.48 | 1.25 | RLKAKYPAATG [GLI3_Y933_A934P] | 0.818 | 0.755 | 0.697 | 0.716 | 0.708 | 1.14 | 0.604 | 0.941 | 0.639 | 0.713 | 0.905 | 0.969 | 0.787
5 | 0.644 | 0.451 | 2.55 | PLDGEHFTLQI [TP53_Y327_Y327H] | 0.605 | 0.668 | 0.632 | 0.587 | 0.577 | 1.19 | 0.646 | 0.885 | 0.465 | 1.62 | 1.43 | 1.87 | 0.786
6 | 0.993 | 0.504 | 4.07 | EFTPLYPMLFG [SCLY_Y280] | 0.475 | 0.547 | 0.695 | 12.8 | 0.59 | 0.849 | 0.458 | 9.26 | 2.6 | 1.01 | 1.64 | 1.12 | 0.515
7 | 0.743 | 0.394 | 0.58 | FGSSSYGGAGG [RPA2_Y14_YF] | 0.43 | 0.45 | 0.401 | 0.437 | 0.431 | 0.677 | 0.334 | 0.436 | 0.329 | 0.415 | 0.544 | 0.559 | 0.374
8 | 1.08 | 0.636 | 0.652 | GEDEPYAEPFA [APBA1_Y183_S184A_YF] | 0.649 | 0.462 | 0.571 | 0.607 | 0.584 | 0.814 | 0.569 | 0.872 | 0.547 | 1.43 | 1.47 | 1.21 | 0.593
9 | 1.09 | 0.861 | 1.51 | TFHNTYHSHMR [IL1RAPL1_Y615_Q618H] | 0.554 | 0.4 | 0.485 | 0.67 | 0.367 | 0.538 | 0.44 | 0.424 | 0.482 | 0.529 | 0.725 | 0.884 | 0.667
10 | 0.873 | 3.88 | 46.5 | NGTVSYAIVAG [CDH23_Y1672_T1671S] | 0.456 | 0.638 | 0.575 | 0.496 | 0.661 | 0.591 | 0.448 | 0.593 | 0.792 | 0.778 | 0.703 | 0.961 | 0.479
11 | 0.814 | 0.541 | 0.847 | ILKPDYQPLAI [HYDIN_Y1072] | 0.376 | 0.415 | 0.403 | 0.376 | 0.489 | 0.62 | 0.379 | 0.533 | 0.425 | 0.613 | 0.556 | 0.65 | 0.484
12 | 0.942 | 0.359 | 1.09 | QAEEWYFGKMG [YES1_Y159] | 0.787 | 0.773 | 0.48 | 1.17 | 0.498 | 1.05 | 0.603 | 1.07 | 0.439 | 1.28 | 1.44 | 1.13 | 0.847
13 | 0.795 | 0.826 | 0.652 | ASELGYQFQAI [UROD_Y133_V134Q] | 0.46 | 0.407 | 0.5 | 0.525 | 0.362 | 0.596 | 0.493 | 0.59 | 0.387 | 0.77 | 0.679 | 0.92 | 0.468
14 | 0.608 | 0.37 | 0.279 | TEFSQYMRRKN [MAX_Y73_I71S_YF] | 0.735 | 0.647 | 0.625 | 0.718 | 0.538 | 0.836 | 0.516 | 0.626 | 0.727 | 0.76 | 0.727 | 0.901 | 0.715
15 | 0.769 | 0.769 | 0.544 | SDGHEYIFVDP [PDGFRB_Y579_YF] | 0.512 | 0.509 | 0.486 | 1.75 | 0.478 | 0.573 | 0.447 | 1.37 | 0.425 | 2.08 | 1 | 0.811 | 0.43
16 | 1.07 | 0.554 | 0.72 | VRFMAYTDEIF [F8_Y450_T454I] | 0.434 | 0.434 | 0.595 | 0.608 | 0.598 | 1.23 | 0.65 | 0.753 | 0.697 | 1.21 | 1.07 | 1.21 | 0.436
17 | 0.946 | 0.545 | 0.932 | VDSTEYEVASQ [SLC7A7_Y7] | 0.514 | 0.499 | 0.646 | 0.544 | 0.632 | 0.825 | 0.598 | 0.776 | 0.436 | 1.25 | 1.04 | 1.16 | 0.549
18 | 1.04 | 0.589 | 1.6 | GQKTLYSFFSP [UNG_Y8] | 4.32 | 4.16 | 2.12 | 1.18 | 2.58 | 2.05 | 8.62 | 1.42 | 10.3 | 0.984 | 0.908 | 1.2 | 4.06
19 | 0.91 | 0.443 | 0.554 | EKIANYKEGTF [CLRN1_Y171_YF] | 0.5 | 0.465 | 0.474 | 0.461 | 0.53 | 0.543 | 0.408 | 0.537 | 0.498 | 0.967 | 0.724 | 0.823 | 0.4

Continued, sequence first:

Row | Sequence | SH2 binding enrichment [14] | SH2 binding enrichment [15] | SH2 binding enrichment [16] | phosphorylation enrichment [1] | phosphorylation enrichment [2] | phosphorylation enrichment [3] | phosphorylation enrichment [4] | phosphorylation enrichment [5] | phosphorylation enrichment [6] | phosphorylation enrichment [7] | phosphorylation enrichment [8] | phosphorylation enrichment [9] | phosphorylation enrichment [10] | phosphorylation enrichment [11] | phosphorylation enrichment [12] | phosphorylation enrichment [13]
20 | NTPNTYLRVNV [ADD2_Y440] | 0.927 | 0.485 | 1.29 | 0.436 | 0.433 | 0.47 | 0.44 | 0.412 | 0.587 | 0.38 | 0.598 | 0.347 | 0.891 | 0.908 | 0.98 | 0.428
21 | CKLYQYYLDHL [ATRX_Y1849] | 0.731 | 0.391 | 0.523 | 2.05 | 0.587 | 1.54 | 1.44 | 2.18 | 1.17 | 0.758 | 1.54 | 2.12 | 1.74 | 1.54 | 1.65 | 0.698
22 | VPTSKYRGGGG [HBA1_Y141_L137P] | 0.929 | 0.558 | 0.597 | 0.363 | 0.452 | 0.341 | 0.392 | 0.284 | 0.446 | 0.327 | 0.349 | 0.392 | 0.392 | 0.572 | 0.457 | 0.355
23 | KLFYIYTSGTT [SLC27A4_Y245] | 0.943 | 0.53 | 1.34 | 0.575 | 0.455 | 0.727 | 0.449 | 0.61 | 0.767 | 0.556 | 0.755 | 0.5 | 1.24 | 1.51 | 1.37 | 0.506
24 | KLGDVYVNDAF [PGK1_Y161] | 2.38 | 1.39 | 0.729 | 0.423 | 0.552 | 0.571 | 0.557 | 0.467 | 0.574 | 0.547 | 0.63 | 0.395 | 0.734 | 0.801 | 0.86 | 0.488
25 | IQRSLYDRPAS [PDGFRA_Y762] | 0.83 | 1.98 | 0.543 | 0.458 | 0.613 | 0.479 | 0.489 | 0.488 | 0.541 | 0.988 | 0.469 | 0.689 | 0.699 | 0.577 | 0.643 | 1.59
26 | NTEGGYCCICA [CRELD1_Y328_R329C] | 0.704 | 0.632 | 0.693 | 0.529 | 0.512 | 0.657 | 0.562 | 0.497 | 0.894 | 0.583 | 0.668 | 0.673 | 1.02 | 0.878 | 0.966 | 0.911
27 | ETGEPCRLSPE [EIF4G1_Y311_Y311C] | 0.866 | 0.664 | 0.618 | 0.553 | 0.531 | 0.674 | 0.612 | 0.62 | 1.01 | 0.55 | 0.846 | 0.536 | 1.13 | 1.15 | 1.31 | 0.689
28 | YSGIYYKPESL [L2HGDH_Y103_H98Y] | 0.831 | 6.04 | 10.5 | 6.07 | 9.17 | 12.4 | 11 | 9.38 | 29.5 | 9.95 | 9.82 | 10.9 | 2.36 | 6.33 | 0.968 | 8.46
29 | KQMEQYMSFHK [HCN1_Y417_V414M] | 0.822 | 0.576 | 0.429 | 1.76 | 1.47 | 0.369 | 0.408 | 0.393 | 0.416 | 0.313 | 0.547 | 0.419 | 0.5 | 0.516 | 0.573 | 4.18
30 | GSETPYVDRTP [ESS2_Y335] | 0.814 | 0.573 | 0.719 | 0.453 | 0.451 | 0.477 | 0.488 | 0.408 | 0.603 | 0.409 | 0.553 | 0.466 | 0.711 | 0.813 | 0.821 | 0.429
31 | TVNIRYLLFPS [SERAC1_Y548_S543T] | 1.9 | 1.26 | 1.46 | 0.434 | 0.577 | 0.725 | 0.578 | 0.728 | 0.716 | 0.564 | 0.829 | 0.606 | 1.21 | 1.11 | 1.21 | 0.574
32 | YQLPYYNMVPS [BMPR1A_Y458] | 11.4 | 5.08 | 1.73 | 5.1 | 3.36 | 2.52 | 13.1 | 2.58 | 3.96 | 5.67 | 10.5 | 8.84 | 2.75 | 10.4 | 0.802 | 3.28
33 | KLPYLYDDPFS [GPX2_Y127_P126L] | 0.765 | 2.42 | 0.797 | 0.906 | 0.695 | 4.17 | 0.489 | 3.22 | 1.12 | 1.28 | 0.689 | 2.58 | 1.22 | 0.997 | 1.3 | 1.46
